Broadly, the Kd is the constant that tells how readily two partners part at equilibrium.

This note sets out measurements from article PMC3303844, “C-Terminal Extension of the Yeast Mitochondrial DNA Polymerase Determines the Balance between Synthesis and Degradation”.

Settings in all cases: protein: recombinant; tags: N-terminal 6xHis; label: 32P at 5' end of D25 primer; 25 bp duplex, 5' overhang 20 nt on D45 (recessed primer 3' end)
The target in data set [1] is T1, FL-Mip1 (mitochondrial DNA polymerase gamma) (Saccharomyces cerevisiae, UniProt P15801 30-1254).
T1 sequence: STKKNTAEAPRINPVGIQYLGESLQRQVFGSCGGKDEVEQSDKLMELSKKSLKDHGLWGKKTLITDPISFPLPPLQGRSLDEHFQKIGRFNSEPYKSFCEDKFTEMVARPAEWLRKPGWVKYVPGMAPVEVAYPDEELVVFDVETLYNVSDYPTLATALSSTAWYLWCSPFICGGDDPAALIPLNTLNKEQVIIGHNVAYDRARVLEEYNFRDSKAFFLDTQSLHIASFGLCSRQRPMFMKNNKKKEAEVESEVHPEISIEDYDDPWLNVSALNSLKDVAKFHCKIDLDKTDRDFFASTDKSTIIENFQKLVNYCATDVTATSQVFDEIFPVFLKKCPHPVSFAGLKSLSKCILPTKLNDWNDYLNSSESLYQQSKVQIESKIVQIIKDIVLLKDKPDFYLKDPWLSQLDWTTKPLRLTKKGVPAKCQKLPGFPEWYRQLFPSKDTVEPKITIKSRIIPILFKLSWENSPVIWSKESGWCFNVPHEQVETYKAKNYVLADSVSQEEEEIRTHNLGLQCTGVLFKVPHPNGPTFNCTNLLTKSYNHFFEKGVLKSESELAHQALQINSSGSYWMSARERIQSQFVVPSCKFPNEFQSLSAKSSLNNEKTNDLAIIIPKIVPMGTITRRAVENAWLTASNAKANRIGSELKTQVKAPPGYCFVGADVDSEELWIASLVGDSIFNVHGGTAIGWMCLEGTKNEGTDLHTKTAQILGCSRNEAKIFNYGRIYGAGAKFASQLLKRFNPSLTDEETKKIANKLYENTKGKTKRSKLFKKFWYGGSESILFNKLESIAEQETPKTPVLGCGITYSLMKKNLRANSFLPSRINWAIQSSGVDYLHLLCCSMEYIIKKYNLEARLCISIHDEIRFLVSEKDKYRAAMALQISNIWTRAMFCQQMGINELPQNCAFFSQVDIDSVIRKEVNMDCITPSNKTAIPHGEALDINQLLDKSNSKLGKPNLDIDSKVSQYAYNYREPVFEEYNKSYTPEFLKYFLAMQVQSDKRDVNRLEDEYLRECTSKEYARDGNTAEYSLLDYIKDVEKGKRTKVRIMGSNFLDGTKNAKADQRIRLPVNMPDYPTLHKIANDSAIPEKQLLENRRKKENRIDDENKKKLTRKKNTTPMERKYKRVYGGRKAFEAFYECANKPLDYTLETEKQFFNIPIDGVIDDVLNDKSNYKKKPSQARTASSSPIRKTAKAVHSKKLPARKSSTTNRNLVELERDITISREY
The data set can be described thus: EMSA; no Mg2+ or dNTP in binding mix; EMSA: 1 nM substrate, 0.2-12.5 nM polymerase, 20 mM Tris-HCl pH 8.0, 40 mM KCl, 10% glycerol, 0.1 mg/ml BSA, 2 mM DTT, 2 min at 0°C; native 8% Tris-glycine gel. Background: Mobility shift assays separate free from complexed probe on a gel.

For the next data set, the target named is T2, Mip1Δ216 (Saccharomyces cerevisiae, UniProt P15801 30-1038, del1039-1254).
T2 sequence: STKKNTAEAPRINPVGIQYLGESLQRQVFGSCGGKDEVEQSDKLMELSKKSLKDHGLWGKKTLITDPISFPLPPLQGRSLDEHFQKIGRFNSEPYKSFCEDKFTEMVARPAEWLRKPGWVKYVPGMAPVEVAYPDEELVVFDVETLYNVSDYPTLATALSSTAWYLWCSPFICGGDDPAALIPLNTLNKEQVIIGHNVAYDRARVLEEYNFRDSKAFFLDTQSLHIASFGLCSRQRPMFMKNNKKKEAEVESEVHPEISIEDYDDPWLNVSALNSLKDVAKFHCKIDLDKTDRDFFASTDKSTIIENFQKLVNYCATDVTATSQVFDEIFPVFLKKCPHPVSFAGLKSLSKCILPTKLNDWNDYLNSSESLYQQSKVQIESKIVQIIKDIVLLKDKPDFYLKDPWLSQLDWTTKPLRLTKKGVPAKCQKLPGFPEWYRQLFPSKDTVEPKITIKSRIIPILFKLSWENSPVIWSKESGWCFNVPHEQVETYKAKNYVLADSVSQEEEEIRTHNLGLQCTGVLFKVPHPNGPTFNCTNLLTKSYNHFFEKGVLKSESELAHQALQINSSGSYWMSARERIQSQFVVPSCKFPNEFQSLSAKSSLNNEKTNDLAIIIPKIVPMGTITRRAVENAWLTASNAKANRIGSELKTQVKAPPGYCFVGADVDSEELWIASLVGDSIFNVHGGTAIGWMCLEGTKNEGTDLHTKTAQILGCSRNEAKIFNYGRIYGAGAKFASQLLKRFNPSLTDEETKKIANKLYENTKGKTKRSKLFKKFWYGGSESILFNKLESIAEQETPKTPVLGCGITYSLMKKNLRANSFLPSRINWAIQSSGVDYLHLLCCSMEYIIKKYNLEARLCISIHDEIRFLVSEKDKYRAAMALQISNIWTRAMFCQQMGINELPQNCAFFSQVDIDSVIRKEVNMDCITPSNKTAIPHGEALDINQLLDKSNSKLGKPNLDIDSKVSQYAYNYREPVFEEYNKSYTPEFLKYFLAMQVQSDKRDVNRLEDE
Described as above.

Another data set has as its target T3, Mip1Δ175 (Saccharomyces cerevisiae, UniProt P15801 30-1079, del1080-1254).
T3 sequence: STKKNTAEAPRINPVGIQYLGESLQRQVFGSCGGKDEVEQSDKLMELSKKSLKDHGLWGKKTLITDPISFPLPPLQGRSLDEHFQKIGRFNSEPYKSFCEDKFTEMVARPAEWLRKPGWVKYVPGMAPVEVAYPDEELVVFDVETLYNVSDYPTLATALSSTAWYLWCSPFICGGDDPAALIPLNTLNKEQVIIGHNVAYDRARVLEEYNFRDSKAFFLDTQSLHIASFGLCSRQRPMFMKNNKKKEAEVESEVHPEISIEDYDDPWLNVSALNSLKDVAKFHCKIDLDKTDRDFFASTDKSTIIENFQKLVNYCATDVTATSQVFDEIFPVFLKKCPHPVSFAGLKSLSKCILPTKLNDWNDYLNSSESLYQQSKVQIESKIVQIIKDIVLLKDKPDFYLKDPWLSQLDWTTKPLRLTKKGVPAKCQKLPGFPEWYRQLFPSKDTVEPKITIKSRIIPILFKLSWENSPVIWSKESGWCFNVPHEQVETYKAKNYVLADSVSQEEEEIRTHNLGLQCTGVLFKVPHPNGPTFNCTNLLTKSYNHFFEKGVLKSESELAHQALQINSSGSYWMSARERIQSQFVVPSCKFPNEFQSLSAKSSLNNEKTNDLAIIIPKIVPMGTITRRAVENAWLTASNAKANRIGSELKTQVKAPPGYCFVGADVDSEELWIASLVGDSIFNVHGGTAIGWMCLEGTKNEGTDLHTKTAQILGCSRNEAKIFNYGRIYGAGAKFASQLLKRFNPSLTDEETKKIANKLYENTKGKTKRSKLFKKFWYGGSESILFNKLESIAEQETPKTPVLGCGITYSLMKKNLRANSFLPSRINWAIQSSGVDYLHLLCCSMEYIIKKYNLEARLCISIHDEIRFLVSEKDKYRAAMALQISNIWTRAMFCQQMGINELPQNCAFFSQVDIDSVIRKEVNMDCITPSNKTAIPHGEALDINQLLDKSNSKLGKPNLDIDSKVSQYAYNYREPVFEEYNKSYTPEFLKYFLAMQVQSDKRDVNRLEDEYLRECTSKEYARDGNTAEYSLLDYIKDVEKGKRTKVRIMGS
Described as above.

The target in a further data set is T4, Mip1Δ279 (Saccharomyces cerevisiae, UniProt P15801 30-975, del976-1254).
T4 sequence: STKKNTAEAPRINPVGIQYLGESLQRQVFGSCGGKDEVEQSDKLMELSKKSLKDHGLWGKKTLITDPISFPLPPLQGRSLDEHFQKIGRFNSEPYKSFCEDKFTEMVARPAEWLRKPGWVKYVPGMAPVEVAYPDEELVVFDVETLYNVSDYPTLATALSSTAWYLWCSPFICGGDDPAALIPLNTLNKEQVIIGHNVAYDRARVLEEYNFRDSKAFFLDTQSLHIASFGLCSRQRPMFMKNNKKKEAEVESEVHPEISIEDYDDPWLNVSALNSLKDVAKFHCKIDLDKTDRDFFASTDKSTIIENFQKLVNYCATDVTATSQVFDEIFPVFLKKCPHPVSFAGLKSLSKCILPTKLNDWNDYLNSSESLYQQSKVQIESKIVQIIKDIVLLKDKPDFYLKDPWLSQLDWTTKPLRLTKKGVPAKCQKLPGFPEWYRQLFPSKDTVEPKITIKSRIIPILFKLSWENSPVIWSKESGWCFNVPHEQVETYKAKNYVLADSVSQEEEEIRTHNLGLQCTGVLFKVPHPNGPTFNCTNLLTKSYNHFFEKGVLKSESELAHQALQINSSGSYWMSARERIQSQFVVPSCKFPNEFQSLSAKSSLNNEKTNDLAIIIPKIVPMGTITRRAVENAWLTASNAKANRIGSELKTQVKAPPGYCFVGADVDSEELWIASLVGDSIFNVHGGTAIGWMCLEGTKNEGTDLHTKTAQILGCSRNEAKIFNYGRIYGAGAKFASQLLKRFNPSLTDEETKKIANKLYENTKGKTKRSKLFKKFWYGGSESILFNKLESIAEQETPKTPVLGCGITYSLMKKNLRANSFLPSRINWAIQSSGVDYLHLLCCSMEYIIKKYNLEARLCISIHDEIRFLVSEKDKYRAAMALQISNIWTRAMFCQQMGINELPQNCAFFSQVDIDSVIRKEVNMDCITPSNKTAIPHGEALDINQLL
The data set is described as follows: EMSA; faint shifted band, complex possibly retained in well (aggregation); not quantified; EMSA: 1 nM substrate, 0.2-12.5 nM polymerase, 20 mM Tris-HCl pH 8.0, 40 mM KCl, 10% glycerol, 0.1 mg/ml BSA, 2 mM DTT, 2 min at 0°C; native 8% Tris-glycine gel.

B1: 45/25 primer-template (D45/D25) (dsDNA)
DNA 1: GGACGGCATTGGATCGAGGTTGAGTTGGTTGGACGGCTGCGAGGC
DNA 2: GCCTCGCAGCCGTCCAACCAACTCA
B1: the equilibrium dissociation constant (Kd) came out at 4.3 ± 0.68 nM in data set [1], 0.95 ± 0.18 nM with Mip1Δ216 and 2.2 ± 0.75 nM in the data set with Mip1Δ175. Also, the binding result with Mip1Δ279 is listed as “binds”.
